T1: F401-VLPs of parvovirus B19 (parvovirus B19 genotype 1 (mutated), UniProt P07299 228-781)
T1 construct: also called F401-B19V; construct A
T1 chain: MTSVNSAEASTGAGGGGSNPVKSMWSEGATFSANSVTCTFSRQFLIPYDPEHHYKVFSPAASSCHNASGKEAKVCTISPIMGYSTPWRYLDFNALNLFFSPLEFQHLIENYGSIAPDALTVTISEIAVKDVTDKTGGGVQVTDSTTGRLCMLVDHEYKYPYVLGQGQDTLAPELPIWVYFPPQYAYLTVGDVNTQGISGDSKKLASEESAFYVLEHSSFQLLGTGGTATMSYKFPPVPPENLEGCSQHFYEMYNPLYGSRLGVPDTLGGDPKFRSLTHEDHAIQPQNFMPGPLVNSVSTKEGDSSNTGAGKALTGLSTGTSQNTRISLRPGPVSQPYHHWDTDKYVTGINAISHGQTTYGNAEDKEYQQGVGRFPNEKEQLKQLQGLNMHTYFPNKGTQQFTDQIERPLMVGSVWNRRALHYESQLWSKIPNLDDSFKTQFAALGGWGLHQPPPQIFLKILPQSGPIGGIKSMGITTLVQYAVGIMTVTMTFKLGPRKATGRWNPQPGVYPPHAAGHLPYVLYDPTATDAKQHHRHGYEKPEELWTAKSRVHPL

T2: N399N400F401TDT404-VLPs of parvovirus B19 (parvovirus B19 genotype 1 (mutated), UniProt P07299 228-781)
T2 construct: also called NNF401TDT-B19V; NNF401TDT
T2 chain: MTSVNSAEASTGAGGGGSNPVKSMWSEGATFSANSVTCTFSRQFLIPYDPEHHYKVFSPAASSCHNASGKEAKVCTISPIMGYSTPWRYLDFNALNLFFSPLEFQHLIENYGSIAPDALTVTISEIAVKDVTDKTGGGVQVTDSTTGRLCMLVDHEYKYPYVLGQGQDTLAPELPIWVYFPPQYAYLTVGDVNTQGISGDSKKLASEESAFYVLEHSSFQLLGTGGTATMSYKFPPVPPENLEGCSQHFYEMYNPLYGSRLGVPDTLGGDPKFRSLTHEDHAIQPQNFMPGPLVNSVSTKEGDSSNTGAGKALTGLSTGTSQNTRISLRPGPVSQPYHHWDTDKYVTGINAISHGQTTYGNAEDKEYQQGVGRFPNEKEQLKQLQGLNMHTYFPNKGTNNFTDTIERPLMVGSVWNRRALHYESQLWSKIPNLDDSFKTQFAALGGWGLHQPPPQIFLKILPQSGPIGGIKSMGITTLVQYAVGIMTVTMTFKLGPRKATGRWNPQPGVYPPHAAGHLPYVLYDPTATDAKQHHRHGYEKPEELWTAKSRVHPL

T3: QQW401TDQ-VLPs of B19V (parvovirus B19 genotype 1 (mutated), UniProt P07299 228-781)
T3 construct: also called construct B
T3 chain: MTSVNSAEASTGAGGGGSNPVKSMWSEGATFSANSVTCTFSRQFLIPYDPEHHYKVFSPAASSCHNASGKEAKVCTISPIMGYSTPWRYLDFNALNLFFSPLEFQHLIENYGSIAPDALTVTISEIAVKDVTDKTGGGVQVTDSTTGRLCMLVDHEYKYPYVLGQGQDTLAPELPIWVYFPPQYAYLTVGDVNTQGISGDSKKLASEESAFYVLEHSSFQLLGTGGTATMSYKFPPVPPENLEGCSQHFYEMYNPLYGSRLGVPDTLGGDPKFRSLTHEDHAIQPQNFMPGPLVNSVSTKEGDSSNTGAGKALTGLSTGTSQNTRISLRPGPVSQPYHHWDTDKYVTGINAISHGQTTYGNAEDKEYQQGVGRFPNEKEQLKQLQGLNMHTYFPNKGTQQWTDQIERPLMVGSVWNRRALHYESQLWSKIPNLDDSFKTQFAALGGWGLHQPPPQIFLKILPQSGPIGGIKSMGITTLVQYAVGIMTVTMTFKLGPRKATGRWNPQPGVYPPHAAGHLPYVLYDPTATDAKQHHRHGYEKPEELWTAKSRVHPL

T4: HPV16 VLPs (human papillomavirus type 16, UniProt P03101 1-505)
T4 construct: Specificity control; also called human papillomavirus VLPs
T4 sequence: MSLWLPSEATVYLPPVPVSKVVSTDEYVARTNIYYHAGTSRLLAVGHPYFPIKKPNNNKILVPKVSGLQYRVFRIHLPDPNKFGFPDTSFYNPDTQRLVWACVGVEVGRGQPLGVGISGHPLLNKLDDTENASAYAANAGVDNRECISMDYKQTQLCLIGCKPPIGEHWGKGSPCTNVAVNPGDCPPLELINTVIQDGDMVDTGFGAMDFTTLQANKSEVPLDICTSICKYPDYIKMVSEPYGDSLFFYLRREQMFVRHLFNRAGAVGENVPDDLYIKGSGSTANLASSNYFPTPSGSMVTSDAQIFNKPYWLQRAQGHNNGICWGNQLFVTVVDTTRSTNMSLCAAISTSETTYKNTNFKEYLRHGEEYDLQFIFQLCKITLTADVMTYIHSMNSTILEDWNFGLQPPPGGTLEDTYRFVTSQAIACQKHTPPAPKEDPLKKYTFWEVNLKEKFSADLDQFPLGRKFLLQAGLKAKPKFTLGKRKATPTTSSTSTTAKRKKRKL

B1: MAb #25 (antibody, V domains shown)
VH: QVQLQQPGAELVRPGASVKLSCKASGYTFTNYWMHWVKQRPEQGLEWIGRIDPYDSETHYNQKFKDKAILTVDTSSNTAYMQLSSLTSEDSAVYYCTSYYYGSNYVWHFDVWGAGTTVTVSS
VL: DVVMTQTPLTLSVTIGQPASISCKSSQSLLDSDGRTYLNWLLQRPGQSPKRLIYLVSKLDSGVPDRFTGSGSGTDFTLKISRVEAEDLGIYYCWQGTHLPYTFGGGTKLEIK
notes: Murine hybridoma antibody, supernatant; also called antibody 25
B2: MAb #91 (antibody, V domains shown)
VH: EVQLQQSGPELVKPGASVKISCKASGYSFTDYFMNWVKQSHGKSLEWIGRINPYNGDSFYNQNFRGSVTLTVDKSSGTAHMELLSLTSEDSTVYYCGAYRYDGYAMDYWGQGTSVTVSS
VL: DVVMTQTPLSLPVSLGDQASISCRSSQSLVHSDGNTYLHWYLQKPGQSPKLLIYKVSNRFSGVPDRFSGSGSGTDFTLKISRVEAEDLGVYFCSQSTHVPFTFGSGTKLEIK
notes: Murine hybridoma antibody, supernatant; also called antibody 91

Legend:
Assay in all cases: ELISA, intact VLPs coated, hybridoma supernatant
[1] = target: T1, F401-VLPs of parvovirus B19
[2] = target: T2, N399N400F401TDT404-VLPs of parvovirus …
QQW401TDQ-VLPs of B19V = target: T3, QQW401TDQ-VLPs of B19V
HPV16 VLPs = target: T4, HPV16 VLPs

Binder | ELISA absorbance (405 nm) [1] | ELISA absorbance (405 nm) [2] | ELISA absorbance (405 nm) (QQW401TDQ-VLPs of B19V) | ELISA absorbance (405 nm) (HPV16 VLPs)
B1 | 3.82 | 3.26 | 1.53 | 0.009
B2 | 3.01 | 3.86 | 1.64 | 0.005

Source: patent publication US20230049732A1 (UNIVERSITY OF LOUISVILLE RESEARCH FOUNDATION, published 2023)
